Laboratory results: publication PMC7865891

Columns and labels:
[1] = test system: β-conglutin (lupin (species not stated)); test: SPR; details: 1:1 kinetic model, protein immobilized, PBS (10 mM phosphate, 135 mM NaCl, 2.7 mM KCl, pH 7.4) + 1.5 mM MgCl2, MST +0.05% Tween-20, 25 C (20 mM KCl for TT derivatives), BLI +0.1% Tween-20, 30 C
[2] = test system: β-conglutin (lupin (species not stated)); test: MST; details: 0.05% Tween-20, 25 C, Hill EC50 fit, PBS (10 mM phosphate, 135 mM NaCl, 2.7 mM KCl, pH 7.4) + 1.5 mM MgCl2, MST +0.05% Tween-20, 25 C (20 mM KCl for TT derivatives), BLI +0.1% Tween-20, 30 C, SPR …
[3] = test system: β-conglutin (lupin (species not stated)); test: BLI; details: 2:1 heterogeneous model, 30 C, 0.1% Tween-20, 5' TEG spacer, PBS (10 mM phosphate, 135 mM NaCl, 2.7 mM KCl, pH 7.4) + 1.5 mM MgCl2, MST +0.05% Tween-20, 25 C (20 mM KCl for TT derivatives), BLI +0.1% Tween-20, 30 C, SPR …

**Q.** Which Kd [1] does the source give for TTGGTGGGGGTGG [TT-11-mer] here?
**A.** 7.28 nM

**Q.** GGTGGGGGTGGTT [11-mer-TT] was tested. Which Kd [1] did it give?
**A.** 84.9 nM

**Q.** TTGGTGGGGGTGG [Cy5-TT-11-mer] was tested. Which Kd ([2]; 20 mM KCl) did it give?
**A.** 1.88 nM

**Q.** With TTGGTGGGGGTGGTT [TT-11-mer-TT] as the sequence, how does the Kd [1] read?
**A.** 53.7 nM

**Q.** How did the Kd ([2]; binding buffer) turn out when GGTGGGGGTGG [Cy5-11-mer] was run?
**A.** 1.05 nM

**Q.** With TTGGTGGGGGTGGTT [Cy5-TT-11-mer-TT] as the sequence, how does the Kd ([2]; 20 mM KCl) read?
**A.** 2.71 nM

**Q.** Which Kd ([3]; first KD) does the source give for “TTTTTTTTTTTTTTTGGTGGGGGTGG [Biotin-TEG-T15-11-mer]” here?
**A.** 6.95 nM

**Q.** What about the Kd ([3]; second KD) of the same sequence?
**A.** 23.3 nM

**Q.** How did the Kd ([2]; 20 mM KCl) turn out when GGTGGGGGTGGTT [Cy5-11-mer-TT] was run?
**A.** 2.59 nM
